Among the data in patent US5958721 are MAPKK phosphorylation in S. pombe (32P-orthophosphate labelling, immunoprecipitation, phosphorimager) values, retold here.

Bounds are passed on as bounds.

The test has as its target rabbit MAP kinase kinase (MAPKK) (rabbit) (UniProt P29678).

As to “ΔRaf-1 (human Raf-1 lacking the first 324 amino acids) (from UniProt P04049) (enzyme)”, the MAPKK phosphorylation in S. pombe (32P-orthophosphate labelling, immunoprecipitation, phosphorimager) is > 5 fold.
